Assay [1] deals with O-conotoxin GeXXVIIA, native form (disulfide-linked homodimer) (Conus generalis). Briefly: mass spectrometry before and after reduction with DTT.
For another assay, the system named is N-type Ca^2+ channel. The note with it: cited from earlier work.
The target in assay [2] is rodent α1β1εδ nicotinic acetylcholine receptor (rat α1, β1, δ; mouse ε) (rat | mouse) (UniProt P25108).
In assay [3] the target is human α9α10 nicotinic acetylcholine receptor (human) (UniProt Q9UGM1).
The test system of another assay is α9α10 nAChR. The settings on record: cited from earlier work.
Assay [4] deals with rat models of neuropathic pain. The note with it: in vivo; cited from earlier work.

Where no end group is shown, it is not given here. The star is where a group is joined. Cam = NC(=O)C*

Broadly, the stoichiometry N is a count of units in the complex or per binding partner. In assay [1], “O-conotoxin GeXXVIIA, native form (disulfide-linked homodimer) (peptide)” yielded a stoichiometry N of 2. With ω-conotoxin MVIIA, in the assay on N-type Ca^2+ channel, the “N-type Ca2+ channel inhibition (in words)” value is given as “selective N-type Ca^2+ channel inhibitor”. For the molecule “GeXXVIIA-L-Nter (N-terminal fragment of GeXXVIIA-L after Asp-N digestion) (peptide)”, the IC50 of inhibition of ACh-evoked current of the receptor in Xenopus oocytes in assay [2] was found to be 2190 nM; in assay [3], 222 nM. By IC50 is commonly meant the concentration that gives 50% inhibition. Vc1.1: in the assay with α9α10 nAChR, the IC50 is 19 nM. Also, the “pain relief in rat models of neuropathic pain” value in assay [4] is on record as “long lasting relief in rat models of neuropathic pain”.

B1: GeXXVIIA-L (disulfide-free linear peptide of GeXXVIIA, Cys residues alkylated with iodoacetamide) (peptide)
chain: ALMSTGTNYRLLKTC(Cam)RGSGRYC(Cam)RSPYDC(Cam)RRRYC(Cam)RRISDAC(Cam)V
For the molecule B1, the IC50 of inhibition of ACh-evoked current of the receptor in Xenopus oocytes in assay [2] came out at 774 nM.

The record behind these values is paper PMC5484120 (Marine Drugs, 2017).
